The source of these data is article PMC2275104 (Nucleic Acids Research, 2008).

Series [1] concerns the target M. thermautotrophicus MCM (MTH1770) (Methanothermobacter thermautotrophicus, UniProt O27798). Particulars: labelled compound; Hepes-NaOH pH 7.5, 5 mM MgCl2, 60°C.
For series [2], the target named is T1, MCM beta-finger mutant (Methanothermobacter thermautotrophicus, UniProt O27798 1-666, R227A;K229A).
T1 sequence: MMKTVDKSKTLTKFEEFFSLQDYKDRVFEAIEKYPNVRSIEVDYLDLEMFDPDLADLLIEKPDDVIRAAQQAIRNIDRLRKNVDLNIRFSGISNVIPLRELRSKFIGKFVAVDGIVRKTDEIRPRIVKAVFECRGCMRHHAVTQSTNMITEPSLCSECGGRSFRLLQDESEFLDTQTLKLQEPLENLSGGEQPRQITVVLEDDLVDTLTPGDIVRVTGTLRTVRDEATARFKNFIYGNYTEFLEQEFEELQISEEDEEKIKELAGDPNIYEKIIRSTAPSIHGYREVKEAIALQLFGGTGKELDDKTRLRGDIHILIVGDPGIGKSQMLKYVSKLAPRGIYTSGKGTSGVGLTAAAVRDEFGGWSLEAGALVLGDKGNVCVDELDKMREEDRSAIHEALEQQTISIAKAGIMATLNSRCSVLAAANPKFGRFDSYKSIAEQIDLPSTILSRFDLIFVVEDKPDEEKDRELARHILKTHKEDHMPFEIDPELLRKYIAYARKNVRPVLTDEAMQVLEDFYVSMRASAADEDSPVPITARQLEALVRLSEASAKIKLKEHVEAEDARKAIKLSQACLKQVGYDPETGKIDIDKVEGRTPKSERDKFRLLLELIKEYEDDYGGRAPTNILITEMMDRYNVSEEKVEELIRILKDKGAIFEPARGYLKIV
Put plainly: fluorescence anisotropy.

Series [3] deals with T2, MCM P193G (Methanothermobacter thermautotrophicus, UniProt O27798 1-666, P193G).
T2 sequence: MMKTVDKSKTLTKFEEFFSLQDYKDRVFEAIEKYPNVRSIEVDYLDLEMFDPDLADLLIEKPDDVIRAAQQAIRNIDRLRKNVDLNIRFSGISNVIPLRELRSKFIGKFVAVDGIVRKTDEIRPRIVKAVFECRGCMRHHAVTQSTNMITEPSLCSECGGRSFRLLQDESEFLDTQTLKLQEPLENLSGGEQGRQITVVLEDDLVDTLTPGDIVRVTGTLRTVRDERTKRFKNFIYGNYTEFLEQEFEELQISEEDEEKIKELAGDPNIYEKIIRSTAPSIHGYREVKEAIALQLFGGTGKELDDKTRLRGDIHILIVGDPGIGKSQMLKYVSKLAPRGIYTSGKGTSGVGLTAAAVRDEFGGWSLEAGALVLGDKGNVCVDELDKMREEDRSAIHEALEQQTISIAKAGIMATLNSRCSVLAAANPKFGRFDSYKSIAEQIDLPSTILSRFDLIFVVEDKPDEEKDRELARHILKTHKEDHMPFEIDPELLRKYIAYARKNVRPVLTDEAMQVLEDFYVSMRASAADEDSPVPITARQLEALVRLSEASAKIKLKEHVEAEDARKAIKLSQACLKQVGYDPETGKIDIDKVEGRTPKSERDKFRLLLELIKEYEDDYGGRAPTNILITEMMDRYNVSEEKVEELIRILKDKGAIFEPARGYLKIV
Nature of the series: fluorescence anisotropy. Background: Polarisation of emitted light reports the rotation of a fluorescent probe.

Series [4] deals with T3, MCM E182R (Methanothermobacter thermautotrophicus, UniProt O27798 1-666, E182R).
T3 sequence: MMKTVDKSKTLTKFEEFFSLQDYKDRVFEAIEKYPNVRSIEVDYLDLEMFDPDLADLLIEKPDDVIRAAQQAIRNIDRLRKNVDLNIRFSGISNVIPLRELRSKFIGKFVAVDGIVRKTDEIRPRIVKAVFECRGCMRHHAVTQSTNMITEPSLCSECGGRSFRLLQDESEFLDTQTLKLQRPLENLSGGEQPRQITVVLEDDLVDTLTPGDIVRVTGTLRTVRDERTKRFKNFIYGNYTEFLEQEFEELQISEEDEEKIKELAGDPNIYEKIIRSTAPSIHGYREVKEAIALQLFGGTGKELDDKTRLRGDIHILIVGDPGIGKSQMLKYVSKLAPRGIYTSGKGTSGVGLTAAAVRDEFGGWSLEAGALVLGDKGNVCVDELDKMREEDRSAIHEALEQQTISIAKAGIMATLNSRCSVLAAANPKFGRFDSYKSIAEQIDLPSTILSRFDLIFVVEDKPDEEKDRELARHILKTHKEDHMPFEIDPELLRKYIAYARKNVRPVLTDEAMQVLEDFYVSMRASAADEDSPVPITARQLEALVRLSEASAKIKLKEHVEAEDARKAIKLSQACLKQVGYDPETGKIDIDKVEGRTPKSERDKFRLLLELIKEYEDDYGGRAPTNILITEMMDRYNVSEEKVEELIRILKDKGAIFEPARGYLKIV
Put plainly: fluorescence anisotropy.

Sequence of M. thermautotrophicus MCM (MTH1770) (O27798 1-666): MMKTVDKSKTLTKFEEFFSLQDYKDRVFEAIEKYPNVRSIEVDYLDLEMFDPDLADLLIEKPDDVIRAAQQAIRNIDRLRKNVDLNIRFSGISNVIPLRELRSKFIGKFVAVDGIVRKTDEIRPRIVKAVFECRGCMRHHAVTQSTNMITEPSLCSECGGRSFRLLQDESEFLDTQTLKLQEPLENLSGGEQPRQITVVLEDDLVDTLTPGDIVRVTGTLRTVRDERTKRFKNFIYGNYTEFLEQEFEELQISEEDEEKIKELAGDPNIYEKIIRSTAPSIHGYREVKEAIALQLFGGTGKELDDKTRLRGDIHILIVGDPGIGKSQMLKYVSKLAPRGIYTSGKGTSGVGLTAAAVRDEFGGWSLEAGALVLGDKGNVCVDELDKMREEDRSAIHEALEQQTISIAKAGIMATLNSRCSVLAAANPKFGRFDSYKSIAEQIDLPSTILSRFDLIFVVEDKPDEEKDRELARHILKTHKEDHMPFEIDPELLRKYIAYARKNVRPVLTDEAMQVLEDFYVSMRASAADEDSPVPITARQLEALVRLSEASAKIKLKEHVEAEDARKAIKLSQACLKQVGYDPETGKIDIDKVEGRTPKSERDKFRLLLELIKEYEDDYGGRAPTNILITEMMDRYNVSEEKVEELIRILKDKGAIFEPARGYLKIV

As to `Nc1ncnc2c1ncn2[C@@H]1O[C@H](COP(=O)(O)OP(=O)(O)OP(=O)(O)O)[C@@H](O)[C@H]1O` [ATP], the “% ATP cross-linked relative to wild type” value in series [1] is listed as “UV crosslinking of ATP to the various MCM proteins was performed”.

CGCAGATAACAGTTGTCCTGGAGAACGACCTGGTTGACACCCTCACACCC (ssDNA) [50-mer Cy3-ssDNA]: the binding result is recorded as “no binding” in series [2], “binds” in series [3] and “binds” in series [4].
